Source: the supplement of paper PMC12636428

System: Saccharomyces cerevisiae
Test: transcriptional activation domain activity (GFP:mCherry ratio, weighted mean of sorted bins, harmonized to initial dataset scale) (arbitrary fluorescence ratio units); higher = stronger transcriptional activation
Conditions: beta-estradiol 1 µM; induction time 4 h
In short: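 Barcoded tiles were sequenced after cells were sorted into 8 bins by GFP:mCherry ratio. Before sorting, cultures had been diluted 1:5 into SC with 1 uM beta-estradiol and held for 4 hours at 30 °C. The tiles were fused to an estradiol-inducible synthetic transcription factor and integrated at URA3 in yeast diploids carrying a GFP reporter. Activation activity is the read-weighted mean of bin median fluorescence, averaged over barcodes and linearly mapped onto the initial dataset scale, and tiles under 50 reads were left out.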

RIRDFMQFTLAATKTHYKLLPDILFKADPELCRRVSDANPSCALAALLTLYAH
transcriptional activation domain activity: 77500

WLVKVYRLGPFSRDKRYGFAKLLGLKLNYDVKQVKQKPSFQLSMALALLNKCT
transcriptional activation domain activity: 64500

DESINGSEMPDFSLDLVSNDRQTGLEALDYDIHNYFPQHSERLTAEKIDTSAC
transcriptional activation domain activity: 76700

PAPAAKKEEKPAAATAEAPKEEAAAAVAAEEPKETKEEEKKEEAKEEKKEEAK
transcriptional activation domain activity: 15800

NCLLHIMRFLPFLELKQFIIAYRRFDIYACAESAIHLQYLDFFNFWMDPSFLL
transcriptional activation domain activity: 49700

LTDWNVVSNKPITGPADPNEDVYIGRSETAMWMRVVSSWVCMLLYSWSLLAPV
transcriptional activation domain activity: 68000

DEPTTDEKKVEETAVAVANLSVEGKKDEKKEEATLSDDKKTEAATEAVAAAPV
transcriptional activation domain activity: 10100

GKPGGGEAKTGERKGEGRGGRGKGGPGGKKDGPPPGEGKGAVVASAASTSATP
transcriptional activation domain activity: 34700

SVSRLHAKIEYEEEEERFVLVVVGRNGAWVDGVWSGAGSRVPLCERSQIQIAS
transcriptional activation domain activity: 45800

LLLESEPLFRCTLPTIRDNISAYLSFLQIPNGNATEELPQWMPYILLIFEILL
transcriptional activation domain activity: 54400

SIHEPVDFLEPQPFLDFFVVFCFRLLFLWLLIFIFLFRLFIVFSLLFLFLHHI
transcriptional activation domain activity: 28600

MGDIKKISCIFFSFIFGLVLFFFVIIITIICILWIWAWDFWACFGSGLGLLVC
transcriptional activation domain activity: 47100

MKILSFLCTYSLSFTLTIPNSLLSFLRTLFNFTNNYKYMILLLLGYLCLIGLF
transcriptional activation domain activity: 35600

AKEDEGEKGKNKDKSKKEEEKKEEGEKKEEGEVKGVKEVEELKVEQPKEEVKL
transcriptional activation domain activity: 17700

KNGWHIIGSSNNVVAYRLRVYQCMDLTTFFSLQAAFSDCERYFVASAIVLDKK
transcriptional activation domain activity: 38500

FEAKHADLIGSQKALYFQSTENIKNLLSMFTSYFSPIVDLLGHLHRVLTQVYH
transcriptional activation domain activity: 46600

AVEARFVTPQDPVLIQDDGSRLPPVPLEEAYKLNVLRREVIERAGSVAKAIEG
transcriptional activation domain activity: 63700

KDPWHIKALVAFVWILDVAHTILISCFVYTLTIVYYGRAQELLKFICLYILIL
transcriptional activation domain activity: 45100

YVSVNEHGDETDSSFVRLVNLGSSIVIQHITCYLQSRVVFYLMNLHSMPRAIF
transcriptional activation domain activity: 60800

TKAATGGTASSSKPQLAVQKKQQPAEGKKQPVTQKLPPAAAQKLQQKAPATAA
transcriptional activation domain activity: 29300

KIAAGAALATAAGVGLHHLRERQRSQSRSSSSERSGRSRSRHRLRHAAELGAA
transcriptional activation domain activity: 64000

SAAAAAGTGAAAAATAGGKTGETQAAGAKKLKLSEEGKGKEKAAAAAAAEDQK
transcriptional activation domain activity: 22100

VIEGNTSPAVGIEMCHVMLCSLVKELYQRVAASGMTFVLSVSVECLLSQTLQT
transcriptional activation domain activity: 31800

EGADVVVEGNERRKKGESVWEKNLRKGLYGVALDYVLEQASSPIIVLTVLTAL
transcriptional activation domain activity: 60900

LQVVIEECDLMPTVAVLLRDAKKVFPERDGFFLYRQMAISVVCVYILCSLFAL
transcriptional activation domain activity: 67900

CDAGILLCLVCYLSSKLIYLFLVEKVFIIRGNRQRWTDKLFLFNMFGMLLPYC
transcriptional activation domain activity: 51600

TQAGPSTGGGVFGQPSQPSTSTNAFGGGNGLFGSKPTTGFGTATTPAAGVPAP
transcriptional activation domain activity: 53600

LFLFFLFVFCAYPFWLVRCFLLALLLSLKDLVQIFLFLITTLCCDISEMWSFV
transcriptional activation domain activity: 42800

FAALRRGLLLIMLFALWDVRLLSELSFTNFVFPPAMFRVIAAQSPSLRAVKVS
transcriptional activation domain activity: 45300

QQQEEEEKKKEVGGEAEGYEERVINMGAKNSAPMKAGDRIIICTPGGGGWGKS
transcriptional activation domain activity: 9620

IQSGDEGKDRKGREKVEDRSKRSRRRSRSRSKDRSRGKRRRDDHEGTKGGGQA
transcriptional activation domain activity: 41100

CIIIVFIIRFLVLDLIGMFVCIYWVSFLFYFILFYFISRMVLHRVFFFFSFLI
transcriptional activation domain activity: 49700

MLLLFVYPCSPLSHCSSFYSYYLIIKLLLFYDIKNLSFFFFLEYFDLWWLITI
transcriptional activation domain activity: 78500

KFIWRSSWSLPKIMYLLIRYLGLVCLLYYAMNAVTVQKSIAVCQLYIISMHTV
transcriptional activation domain activity: 67000

SQKKHCELCKTPFRFTKLYSPSMPKTLPVYVFLSHVAKYLLRNLLVEARAMLV
transcriptional activation domain activity: 42900

LGIRSILETAYRINRLTHMCLQHLLTRCNNLEPLELVGSVLFFLDKKLKRPPE
transcriptional activation domain activity: 50300

DCSSILFSPLTTNTNNEFEGESDDFVHSPYLNSEADFSQILSSAPPVHHDPNE
transcriptional activation domain activity: 72800

NLVRCYYYYGYFGLQSCMVHVFLWFMWWIFLLSSRPLQSTPLSIIWRIILYQA
transcriptional activation domain activity: 29700

MLQQVPRVCIISIFWNISALWAAKRFEPMVSAYSLLSNVPYVLRLVCSWQPTE
transcriptional activation domain activity: 32200

MSSSAASGPMGESSKRKAGSEAVAGSSSSSSISRDGKKAKLKPQDEATATGAA
transcriptional activation domain activity: 31400

SFLNDAMSEIHTFGDFNGELDSTFLEFSGTEIKEPNNFITENTNAIETAAASM
transcriptional activation domain activity: 113000

MCRCFFWSFLVFFVFFSLLCLFVSFCVFLCFAFLCFVFFVFCFFCFFCLFCVF
transcriptional activation domain activity: 56600

VVCRYYHLMMGRTFILLIFTQTLSGLVVYHGVCRSWEVLGCIAHLIKGGIFFF
transcriptional activation domain activity: 55800

IKVQYKGGLIGHQFKDLAQIMSFILYDLGPDTLIECWVRLGWFMSLLWYPKIQ
transcriptional activation domain activity: 58700

EGGRQRERAGGAGGEDSKGEGRREERREEGKGGKGSAEERESREGSARGGEAG
transcriptional activation domain activity: 10200

RDVFLGILHRNWFNRVWILQEVASARAAVVFCGRNSISTRIFTRLPLLFDITP
transcriptional activation domain activity: 68000

MYYDKRSAMLQGLLLMGPRACGFHWSCILAILGLATLVSVDLVQLSYHLPRAV
transcriptional activation domain activity: 32700

MLLPVSYSWLPLLFIPTNASPAFIFLFFVCTYFLNRPCVYCSFLLLILFVTSC
transcriptional activation domain activity: 42200

RDDDAEEDKEEVPKKKNRKGQEVGGEAGKRVEEEEEEEAPKRKKKKAKAAAAD
transcriptional activation domain activity: 13400

VWEAVTTGFDGGFVPRTRDADAGTRRTGGSVRAEERKEKLRAWRVSRCWAVLA
transcriptional activation domain activity: 56500

GNTVAIFVPFWEYCVLFPSELRIWKRMLRARPFRWHFAPIMTIILRYLLIIFA
transcriptional activation domain activity: 45200

ERDDSRSERNVDDGDRRRAGRRRRDSRSSDDEHTTSRRRGGKDHADREDSDRR
transcriptional activation domain activity: 29100

IIAKVIKYAKTIEELYLAYFSVKEYLLNIAIAKTCLTYLTDIKGSHSMIRYNF
transcriptional activation domain activity: 28200

NLLARRPFFVFWFMGQIHRSLTLFHCDPTLLVALDVCKSLIPAINYLTLLWPC
transcriptional activation domain activity: 70900

MQVISYIFFCHVKYLFFVYSLHVVSNTNLSSYMLFNWLYLILLRLFVYIIYFI
transcriptional activation domain activity: 71300

MGYGEQRGSFGGRGGRGGSRGGRGGFGGGDRFNQGPPSEVVVVGAFVSACEGE
transcriptional activation domain activity: 52900

SSSSEPIVLPVPVPVKRGRGRPKGAKNKPKLCEEKKQEEEEERERERERERGT
transcriptional activation domain activity: 12200

AISKLGQIMLYILKCLGLLKVVRKDDQGRIVECNNLTLINLVLTYTGPLPERN
transcriptional activation domain activity: 46000

KQYCVRPNSGRIEPGKDVEVQILLQAMKEDPPPDAKCRDKFLVQSVAVSADKE
transcriptional activation domain activity: 47000

KAPTAPRKAGIAAKAGEKEAAAGAAAKVAEVTEAAARRGRGRPKKAQEELTAS
transcriptional activation domain activity: 50500

MSSSEDEPRPRKARSKLSPPASPDSRAQSAPAVPSPVKLVRAKPRARAKAASL
transcriptional activation domain activity: 42700

GQTHVHFFPSLSHFYPLFFSFYNVLYPPCLYVRICPISLLLLLWWCFYLTFFC
transcriptional activation domain activity: 44100

ILLEVLGKVRGDHTPKRQETSVQGIRRRFRDDLAFLCEYDKGGIACTAIGIEE
transcriptional activation domain activity: 12500

MLTLLLLTLIIFLSSTLVLLFFFLIPLFLICLLTFLLIFFSSPRAFFSFPHPT
transcriptional activation domain activity: 47800

SGPSRERYFLFVFLGSFFWYFFPGYLFQALSWFSWVTWIWPHDTAIAQLFGYF
transcriptional activation domain activity: 52100

AQLLRLAHIHQIRHMVHIFSPVWYRPAVIYCFIAICFIVVLNIQALLSIVWSS
transcriptional activation domain activity: 45900

PLPPSSPHWLVWIHAQDVVTMRMPSRIRPLLQELLEVIISVIQPSLHSAPQSG
transcriptional activation domain activity: 49500

KGRDEEDFPLDYFPVSVEYPTEENAFDPFPPQAFTPAAPSMPISYDNVNERDS
transcriptional activation domain activity: 33400

ALAVMFAEAVALSWWVSALKGQTLECLHFQWEVGQSVLKILLKRRFWGWVCVA
transcriptional activation domain activity: 46700

MDTTDASRGRSKACTYCNKSKTKCMWAGEPGAGACQRCTRLRRSCILPEKGER
transcriptional activation domain activity: 10200

MPGHALVDIQNTFGCTFIGLVISILYLILNFGNVENLEYNMWAMNLQVDITGL
transcriptional activation domain activity: 56500

MSETNAPAASAPDALAEGIAKLDVGAEGAQASEAAAPQANGAGEAAPAAAEAS
transcriptional activation domain activity: 23400

EVLLLLMWMFWTKVVKIIPHFLRHPSDFPLVICQILFGYAHSFIKLWALVTFW
transcriptional activation domain activity: 47200

VTQLIRDARRLLTCVRTGFVFYLGTCMALTCLQMISFCTVLPPILTGYQILWV
transcriptional activation domain activity: 63000
